B1: mAb 2D2.1 (antibody, human IgG2, lambda, V domains shown)
VH: QVQLQQWGAGLLKPSETLSLTCAVYGGSFSGYYWSWIRQPPGKGLEWIGEIDHSGRINYNPALKSRLTISVDTSKNQFSLKLSSVTAADTAVYYCARAGSGGYEDWFDPWGQGTLVTVSS
VL: QSVLTQPPSVSGAPGQRVTISCTGSSSNIGAGYNVHWYQQFPRTDPKLLIYVYNIRPSGVPDRFSGSRSGTSASLAITGLQTEDEADYYCQSYDSSLSGVVFGGGTKLTVLG
notes: fully human IgG2 lambda, Campaign 1; also called mAb 2D.1
B2: mAb 2B4.1 (antibody, human IgG2, lambda, V domains shown)
VH: QVQLVQSGAEVKKPGASVKVSCKASGYTFTDYYMHWVRQAPGQGLEWMGWINPNSGGTNYVQKFQDRVTMTRDTSITTAYMELTRLRSDDTAVYYCAREEGDYGMDVWGQGTTVTVSS
VL: QSVLTQPPSVSGAPGQRVTISCTGSNSNIGTGYDVHWYQKLPGTAPRLLIYSHFNRPSGVPDRFSGSTSGTSASLAITGLQAEDEADYYCQSYDSSLSGSVFGGGTKLTVLG

Columns and labels:
[1] = biological target: T1, mOrai1-hOrai1 ECL2 (AESVIV) protein (human/mouse chimera, UniProt Q8BWG9 1-304 (mouse entry)); test: FACS, 293EBNA transfectants [D00030 FIG. 16D]
T1 construct: also called Ch
From the text: (§1) FIG. 16A-D illustrates the results of FACS analysis showing binding to the indicated mOrai1-hOrai1 ECL2 chimeric mutants expressed on the surface of HEK-293-EBNA cells. Transfected cells were stained first with recombinant monoclonal antibodies then counter-stained with a secondary phycoerythrin-labeled goat (“Gt”) anti-human (“Hu”) IgG F(ab′)₂ antibody fragment and visualized using FACS. In FIG. 16B and FIG. 16D, The values of Relative Fluorescence Intensity as Percent of Control (RFI-POC) are calculated from the relative fluorescence intensity geometric mean (Geo Mean). The geometric mean is an average calculated by multiplying a series of numbers and taking the nth root where n is the number of numbers in the series. It is a statistical average of a set of transformed numbers often used to represent a central tendency in a highly variable data set that minimizes the effects of extreme values.
(§2) Table 11A and Table 11B feature a schematic representation of the POC data from FIG. 16B and FIG. 16D, respectively, where the binding results are recorded as (+++) denoting binding POC from 40% to 100%, (++) for POC of 5% to less than 40%, (+) for POC from 1% to less than 5% and (−) as lack of binding with POC less than 1%.

[2] = biological target: T2, mOrai1-hOrai1 ECL2 (…) protein (human/mouse chimera, UniProt Q8BWG9 1-304 (mouse entry)); test: FACS, 293EBNA transfectants [D00030 FIG. 16D]
T2 construct: also called Ch
From the text: as §1, §2

[3] = biological target: T3, hOrai1-mOrai1 ECL2 (RPTSKPPA) protein (human/mouse chimera, UniProt Q96D31 1-301); test: FACS, 293EBNA transfectants [D00032 FIG. 17B]
T3 construct: also called Ch
Protocol: (§3) FACS binding analysis. Transfected 293EBNA cells transiently expressed hOrai1-mOrai1 ECL2 or mOrai1-hOrai1 ECL2 chimera. The transfected cells were harvested at 48 hours post-transfection. Cells transfected with pcDNA3.1 were used as negative controls. Cells were washed once with ice-cold 1×PBS, resuspended in ice-cold FACS buffer (1×D-PBS+2% goat serum), and 2×10⁵ cells in 100 μL were stained per antibody combination. All antibody incubation steps were performed on ice for 1 hour. […] Next, the unlabelled antibody was detected using goat F(ab′)₂ anti-mouse or anti-human IgG-phycoerythrin (IgG-PE), followed by a wash with 200 μL of ice-cold FACS buffer before flow cytometry analysis. Unstained cells and cells stained with detecting antibodies were used as negative controls. The values of relative level of fluorescence were calculated using FCS Express (De Novo Software) and mean values were calculated using log-transformed data (geometric mean). […]
(§4) Representative results of FACS analysis of binding to the mutant hOrai1-mOrai1 ECL2 chimera described above by exemplary anti-hOrai1 antibodies of the present invention are shown in FIG. 17A-D, Table 10A and Table 10B below. Table 10A (Campaign 1) and Table 10B (Campaign 2) show the gain in binding ability of exemplary monoclonal antibodies to hOrai 1-mOrai 1 ECL2 chimera mutants as determined by FACS.

[4] = biological target: T4, hOrai1-mOrai1 ECL2 (…) protein (human/mouse chimera, UniProt Q96D31 1-301); test: FACS, 293EBNA transfectants [D00032 FIG. 17B]
T4 construct: also called Ch
Protocol: as §3, §4

T2 sequence (Q8BWG9 other isoform, or with tags, fused parts or gaps): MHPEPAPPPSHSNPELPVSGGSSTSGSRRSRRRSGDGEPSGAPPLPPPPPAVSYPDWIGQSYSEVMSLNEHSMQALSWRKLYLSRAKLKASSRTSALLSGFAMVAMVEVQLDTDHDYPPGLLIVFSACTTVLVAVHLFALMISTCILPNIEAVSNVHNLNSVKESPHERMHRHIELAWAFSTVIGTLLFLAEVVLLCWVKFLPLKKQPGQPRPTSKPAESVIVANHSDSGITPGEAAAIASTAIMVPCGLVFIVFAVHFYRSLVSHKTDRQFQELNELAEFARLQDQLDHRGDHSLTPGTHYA
T1 sequence (Q8BWG9 other isoform, or with tags, fused parts or gaps): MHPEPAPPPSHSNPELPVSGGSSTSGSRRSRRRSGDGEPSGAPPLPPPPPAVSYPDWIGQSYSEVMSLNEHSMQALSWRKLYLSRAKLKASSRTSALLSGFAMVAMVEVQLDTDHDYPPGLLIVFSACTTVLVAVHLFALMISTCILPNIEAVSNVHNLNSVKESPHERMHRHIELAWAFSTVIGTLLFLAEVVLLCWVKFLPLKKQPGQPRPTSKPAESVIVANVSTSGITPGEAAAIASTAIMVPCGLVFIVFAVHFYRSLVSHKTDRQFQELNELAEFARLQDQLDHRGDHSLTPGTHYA
T4 sequence (Q96D31 other isoform, or with tags, fused parts or gaps): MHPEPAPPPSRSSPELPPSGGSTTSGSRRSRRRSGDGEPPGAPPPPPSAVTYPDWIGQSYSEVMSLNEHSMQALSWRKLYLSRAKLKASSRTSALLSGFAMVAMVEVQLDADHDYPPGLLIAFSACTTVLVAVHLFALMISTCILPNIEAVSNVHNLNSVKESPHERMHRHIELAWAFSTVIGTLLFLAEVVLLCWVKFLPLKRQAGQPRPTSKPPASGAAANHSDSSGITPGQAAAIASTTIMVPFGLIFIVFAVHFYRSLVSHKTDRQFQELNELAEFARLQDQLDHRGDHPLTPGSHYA
T3 sequence (Q96D31 other isoform, or with tags, fused parts or gaps): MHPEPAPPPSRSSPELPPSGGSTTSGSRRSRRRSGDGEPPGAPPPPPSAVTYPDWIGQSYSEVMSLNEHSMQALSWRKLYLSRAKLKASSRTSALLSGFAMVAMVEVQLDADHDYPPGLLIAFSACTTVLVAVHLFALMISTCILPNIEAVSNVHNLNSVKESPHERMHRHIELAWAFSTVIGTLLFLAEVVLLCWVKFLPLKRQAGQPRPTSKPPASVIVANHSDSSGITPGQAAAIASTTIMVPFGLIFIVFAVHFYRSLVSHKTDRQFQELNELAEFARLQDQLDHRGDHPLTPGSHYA

Row | Binder | binding result [1] | binding result [2] | binding result [3] | binding result [4]
1 | B1 | binds | binds |  | 
2 | B2 |  |  | binds | binds

Reference: patent publication US20120231006A1 (Amgen, published 2012)
